Data as given in publication PMC5332438.

Key:
Test in all cases: co-IP
[1] = target: human mitochondrial adenine nucleotide translocator, C-terminal c-Myc-DDK tag (human) (UniProt P12235)
[2] = target: human translocase of outer mitochondrial membrane 22 homolog, C-terminal c-Myc and DDK tags (human) (UniProt Q9NS69)
[3] = target: Full length human BKCa alpha-subunit starting from Met1, 3xHA-tagged, with DEC splice insert (human)
[4] = target: Full length human BKCa alpha-subunit starting from Met1, 3xHA-tagged, without DEC (human)
Sequence of Full length human BKCa alpha-subunit starting from Met1, 3xHA-tagged, without DEC (human) (Q12791 whole entry): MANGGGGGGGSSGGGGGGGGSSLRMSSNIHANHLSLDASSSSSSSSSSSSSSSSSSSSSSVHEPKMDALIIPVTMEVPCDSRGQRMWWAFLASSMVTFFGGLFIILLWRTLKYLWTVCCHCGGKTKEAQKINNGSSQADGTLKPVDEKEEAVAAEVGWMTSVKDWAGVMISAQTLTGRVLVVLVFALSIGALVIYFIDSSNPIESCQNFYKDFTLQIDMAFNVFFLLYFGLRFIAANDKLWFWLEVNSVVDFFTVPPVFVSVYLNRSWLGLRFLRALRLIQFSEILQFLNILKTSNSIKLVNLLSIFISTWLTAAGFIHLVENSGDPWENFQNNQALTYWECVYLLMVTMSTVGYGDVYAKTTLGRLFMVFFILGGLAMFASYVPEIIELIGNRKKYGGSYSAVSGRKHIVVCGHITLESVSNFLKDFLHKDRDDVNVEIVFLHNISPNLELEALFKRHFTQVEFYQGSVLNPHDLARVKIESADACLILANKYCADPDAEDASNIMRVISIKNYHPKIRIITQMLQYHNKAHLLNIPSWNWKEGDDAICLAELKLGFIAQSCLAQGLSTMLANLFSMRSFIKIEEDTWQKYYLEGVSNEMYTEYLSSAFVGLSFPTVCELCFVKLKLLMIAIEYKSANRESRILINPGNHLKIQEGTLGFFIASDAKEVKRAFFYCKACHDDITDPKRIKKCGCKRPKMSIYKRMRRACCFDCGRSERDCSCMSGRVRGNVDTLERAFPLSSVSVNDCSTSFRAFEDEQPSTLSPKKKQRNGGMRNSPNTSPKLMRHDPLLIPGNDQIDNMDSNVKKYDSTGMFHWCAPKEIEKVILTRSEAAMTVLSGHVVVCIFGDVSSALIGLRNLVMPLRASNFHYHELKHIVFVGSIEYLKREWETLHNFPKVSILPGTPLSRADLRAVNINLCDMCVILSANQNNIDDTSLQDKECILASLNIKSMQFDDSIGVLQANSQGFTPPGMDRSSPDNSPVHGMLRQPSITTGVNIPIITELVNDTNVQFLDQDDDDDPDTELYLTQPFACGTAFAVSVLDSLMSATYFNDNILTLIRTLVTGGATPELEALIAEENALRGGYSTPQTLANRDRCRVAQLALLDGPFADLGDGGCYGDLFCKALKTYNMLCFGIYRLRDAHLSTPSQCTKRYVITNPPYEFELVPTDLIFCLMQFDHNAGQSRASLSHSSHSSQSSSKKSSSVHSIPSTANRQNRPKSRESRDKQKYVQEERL

[5] = target: human BKCa alpha-subunit starting from Met3, untagged (human)
Sequence of human BKCa alpha-subunit starting from Met3, untagged (human) (Q12791 whole entry): as above

Sequence of Full length human BKCa alpha-subunit starting from Met1, 3xHA-tagged, with DEC splice insert (human) (Q12791 whole entry, canonical isoform): as the sequence (Q12791 whole entry) above

Molecule	Co-IP efficiency (compared to wild-type BKCa) [1]	Co-IP efficiency (wild-type BKCa = 1) [2]	also measured
c-Myc-BKCa 1-711 (domain or fragment)	0.91	–	–
c-Myc-BKCa 322-1113 (domain or fragment)	0.17	0.33	–
c-Myc-BKCa 679-1113 (domain or fragment)	0.33	0.42	–
human translocase of outer mitochondrial membrane 22 homolog, C-terminal c-Myc and DDK tags (natural protein) MAAAVAAAGAGEPQSPDELLPKGDAEKPEEELEEDDDEELDETLSERLWGLTEMFPERVRSAAGATFDLSLFVAQKMYRFSRAALWIGTTSFMILVLPVVFETEKLQMEQQQQLQQRQILLGPNTGLSGGMPGALPSLPGKI	–	–	Co-IP efficiency [3]: 0.91; Co-IP efficiency [4]: 0.89
human mitochondrial adenine nucleotide translocator, C-terminal c-Myc-DDK tag (natural protein) MGDHAWSFLKDFLAGGVAAAVSKTAVAPIERVKLLLQVQHASKQISAEKQYKGIIDCVVRIPKEQGFLSFWRGNLANVIRYFPTQALNFAFKDKYKQLFLGGVDRHKQFWRYFAGNLASGGAAGATSLCFVYPLDFARTRLAADVGKGAAQREFHGLGDCIIKIFKSDGLRGLYQGFNVSVQGIIIYRAAYFGVYDTAKGMLPDPKNVHIFVSWMIAQSVTAVAGLVSYPFDTVRRRMMMQSGRKGADIMYTGTVDCWRKIAKDEGAKAFFKGAWSNVLRGMGGAFVLVLYDEIKKYV	–	–	Co-IP efficiency (BKCa-DEC = 1) [5]: 0.69
